Data published in US20100003237.

How the values were obtained:
[1] = biological target: FITC-labeled collagen (Sigma #C4361)
[2] = biological target: FITC-labeled collagen (Elastin #CF308)
[3] = biological target: insoluble collagen conjugated to fluorescein isothiocyanate (FITC) (Anaspec #85111 or Sigma Collagen #C4361)
[4] = biological target: Soluble rat tail collagen Type I, P02454
Chain of Soluble rat tail collagen Type I, P02454 (P02454 152-1207, chain 1 of 2): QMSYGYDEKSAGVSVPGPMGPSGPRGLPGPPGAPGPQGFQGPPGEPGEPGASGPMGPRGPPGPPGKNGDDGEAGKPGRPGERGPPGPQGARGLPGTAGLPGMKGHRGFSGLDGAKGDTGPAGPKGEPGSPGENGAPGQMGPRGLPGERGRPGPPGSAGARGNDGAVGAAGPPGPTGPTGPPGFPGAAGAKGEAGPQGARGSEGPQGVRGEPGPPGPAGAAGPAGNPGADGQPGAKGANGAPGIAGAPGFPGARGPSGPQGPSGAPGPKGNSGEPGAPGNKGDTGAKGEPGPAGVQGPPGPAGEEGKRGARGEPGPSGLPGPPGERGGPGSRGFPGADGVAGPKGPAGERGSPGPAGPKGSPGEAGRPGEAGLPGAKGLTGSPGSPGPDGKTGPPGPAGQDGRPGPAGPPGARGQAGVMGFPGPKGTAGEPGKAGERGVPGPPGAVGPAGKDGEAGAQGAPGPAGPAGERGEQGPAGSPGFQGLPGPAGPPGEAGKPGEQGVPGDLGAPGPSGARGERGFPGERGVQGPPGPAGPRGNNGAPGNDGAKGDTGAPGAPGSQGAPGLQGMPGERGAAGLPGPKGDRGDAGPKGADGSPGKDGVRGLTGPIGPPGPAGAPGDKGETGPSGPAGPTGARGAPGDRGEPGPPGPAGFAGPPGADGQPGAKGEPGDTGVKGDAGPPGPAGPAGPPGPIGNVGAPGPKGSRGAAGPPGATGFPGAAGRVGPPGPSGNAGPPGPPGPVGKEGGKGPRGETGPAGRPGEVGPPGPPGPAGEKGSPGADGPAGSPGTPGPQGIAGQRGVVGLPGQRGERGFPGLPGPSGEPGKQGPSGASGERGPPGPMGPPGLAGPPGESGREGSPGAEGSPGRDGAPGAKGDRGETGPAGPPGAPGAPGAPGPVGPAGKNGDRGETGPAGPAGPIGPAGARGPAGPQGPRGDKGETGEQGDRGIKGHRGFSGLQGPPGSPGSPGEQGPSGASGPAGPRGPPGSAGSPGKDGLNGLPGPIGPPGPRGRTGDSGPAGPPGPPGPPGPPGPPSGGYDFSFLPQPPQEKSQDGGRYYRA
Chain of Soluble rat tail collagen Type I, P02454 (chain, as listed by the source, chain 2 of 2): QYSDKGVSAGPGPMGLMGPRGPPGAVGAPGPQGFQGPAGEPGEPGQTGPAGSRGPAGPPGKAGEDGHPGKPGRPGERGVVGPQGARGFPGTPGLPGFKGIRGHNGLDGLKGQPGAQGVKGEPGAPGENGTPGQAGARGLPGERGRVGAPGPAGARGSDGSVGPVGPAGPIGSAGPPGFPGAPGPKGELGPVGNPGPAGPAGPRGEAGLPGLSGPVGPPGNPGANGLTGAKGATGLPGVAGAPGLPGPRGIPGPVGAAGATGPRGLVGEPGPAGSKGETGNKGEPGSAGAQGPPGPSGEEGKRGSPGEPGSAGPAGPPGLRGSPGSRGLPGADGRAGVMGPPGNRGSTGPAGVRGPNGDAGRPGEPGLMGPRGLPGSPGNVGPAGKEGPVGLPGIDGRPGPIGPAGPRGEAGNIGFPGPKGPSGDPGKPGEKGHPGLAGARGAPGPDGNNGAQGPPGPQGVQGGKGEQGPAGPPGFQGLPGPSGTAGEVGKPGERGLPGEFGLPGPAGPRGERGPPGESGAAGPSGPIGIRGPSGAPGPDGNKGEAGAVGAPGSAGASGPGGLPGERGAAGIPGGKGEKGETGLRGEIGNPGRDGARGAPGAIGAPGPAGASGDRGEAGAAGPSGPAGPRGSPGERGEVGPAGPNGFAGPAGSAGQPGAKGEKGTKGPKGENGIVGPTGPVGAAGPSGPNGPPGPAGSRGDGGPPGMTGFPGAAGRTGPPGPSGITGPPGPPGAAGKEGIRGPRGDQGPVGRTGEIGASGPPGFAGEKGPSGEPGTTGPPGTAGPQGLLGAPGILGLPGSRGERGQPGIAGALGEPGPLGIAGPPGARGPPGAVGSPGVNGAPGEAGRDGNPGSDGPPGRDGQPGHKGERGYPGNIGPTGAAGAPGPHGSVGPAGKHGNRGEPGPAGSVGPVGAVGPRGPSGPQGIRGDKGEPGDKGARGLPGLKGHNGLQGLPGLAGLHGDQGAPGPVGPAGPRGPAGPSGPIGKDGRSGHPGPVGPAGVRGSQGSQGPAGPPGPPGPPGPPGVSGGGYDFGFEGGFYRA

Protein	RFU, 37° C. (fluorescence of supernatant after 144 hours, replicate 1) [1] [RFU]	RFU, 37° C. (fluorescence of supernatant after 144 hours, replicate 2) [1] [RFU]	RFU, Avg 37° C. (fluorescence of supernatant after 144 hours) [1] [RFU]	RFU, 37° C. (fluorescence of supernatant after 144 hours, replicate 1) [2] [RFU]	RFU, 37° C. (fluorescence of supernatant after 144 hours, replicate 2) [2] [RFU]	RFU, Avg 37° C. (fluorescence of supernatant after 144 hours) [2] [RFU]	cleavage of insoluble collagen (7.5% SDS polyacrylamide gel, Coomassie Blue) [3]	degradation of soluble rat tail collagen Type I (1 hour at 37° C., SDS-Page gels, Coomassie Blue staining) [4]
Wild type hMMP-1 clone BAP006-2 (expressed in CHO-S cells), activated with AMPA (protein) FVLTEGNPRWEQTHLTYRIENYTPDLPRADVDHAIEKAFQLWSNVTPLTFTKVSEGQADIMISFVRGDHRDNSPFDGPGGNLAHAFQPGPGIGGDAHFDEDERWTNNFREYNLHRVAAHELGHSLGLSHSTDIGALMYPSYTFSGDVQLAQDDIDGIQAIYGRSQNPVQPIGPQTPKACDSKLTFDAITTIRGEVMFFKDRFYMRTNPFYPEVELNFISVFWPQLPNGLEAAYEFADRDEVRFFKGNKYWAVQGQNVLHGYPKDIYSSFGFPRTVKHIDAALSEENTGKTYFFVANKYWRYDEYKRSMDPGYPKMIAHDFPGIGHKVDAVFMKDGFFYFFHGTRQYKFDPKTKRILTLQKANSWFNCRKN	1270	1280	1270	1730	2300	2010	after 24 hours incubation at 25 °C or 37° C., hMMP-1 partially cleaved the α1(I) and α2(I) collagen chains into ¾ and ¼ length digestion products for all hMMP-1 proteins tested	
hMMP-1 (purchased from R&D Systems, #901-MP), activated with AMPA (protein) FVLTEGNPRWEQTHLTYRIENYTPDLPRADVDHAIEKAFQLWSNVTPLTFTKVSEGQADIMISFVRGDHRDNSPFDGPGGNLAHAFQPGPGIGGDAHFDEDERWTNNFREYNLHRVAAHELGHSLGLSHSTDIGALMYPSYTFSGDVQLAQDDIDGIQAIYGRSQNPVQPIGPQTPKACDSKLTFDAITTIRGEVMFFKDRFYMRTNPFYPEVELNFISVFWPQLPNGLEAAYEFADRDEVRFFKGNKYWAVQGQNVLHGYPKDIYSSFGFPRTVKHIDAALSEENTGKTYFFVANKYWRYDEYKRSMDPGYPKMIAHDFPGIGHKVDAVFMKDGFFYFFHGTRQYKFDPKTKRILTLQKANSWFNCRKN	1160	1140	1150	3490	2980	3240	after 24 hours incubation at 25 °C or 37° C., hMMP-1 partially cleaved the α1(I) and α2(I) collagen chains into ¾ and ¼ length digestion products for all hMMP-1 proteins tested	
Wild type hMMP-1 clone BAP006-10 (pET303CTHis, expressed in BL21 (DE3) E. coli), activated with AMPA (protein) FVLTEGNPRWEQTHLTYRIENYTPDLPRADVDHAIEKAFQLWSNVTPLTFTKVSEGQADIMISFVRGDHRDNSPFDGPGGNLAHAFQPGPGIGGDAHFDEDERWTNNFREYNLHRVAAHELGHSLGLSHSTDIGALMYPSYTFSGDVQLAQDDIDGIQAIYGRSQNPVQPIGPQTPKACDSKLTFDAITTIRGEVMFFKDRFYMRTNPFYPEVELNFISVFWPQLPNGLEAAYEFADRDEVRFFKGNKYWAVQGQNVLHGYPKDIYSSFGFPRTVKHIDAALSEENTGKTYFFVANKYWRYDEYKRSMDPGYPKMIAHDFPGIGHKVDAVFMKDGFFYFFHGTRQYKFDPKTKRILTLQKANSWFNCRKNHHHHH	1290	1340	1310	2670	3060	2860	after 24 hours incubation at 25 °C or 37° C., hMMP-1 partially cleaved the α1(I) and α2(I) collagen chains into ¾ and ¼ length digestion products for all hMMP-1 proteins tested	
cathepsin S (R&D systems, activated) (protein) LPDSVDWREKGCVTEVKYQGSCGACWAFSAVGALEAQLKLKTGKLVSLSAQNLVDCSTEKYGNKGCNGGFMTTAFQYIIDNKGIDSDASYPYKAMDQKCQYDSKYRAATCSKYTELPYGREDVLKEAVANKGPVSVGVDARHPSFFLYRSGVYYEPSCTQNVNHGVLVVGYGDLNGKEYWLVKNSWGHNFGEEGYIRMARNKGNHCGIASFPSYPEI								Cathepsins B, D and S showed some slight degradation of rat collagen at the manufacture specified pH and no degradation of rat collagen at pH 8.0
